From patent US20240083958A1, “G PROTEIN PEPTIDOMIMETICS” (VRIJE UNIVERSITEIT BRUSSEL, priority 2020, published 2024)
Bridge positions count the residues as written; N and C are the ends. Square brackets hold non-standard residues; d marks the D form. Primed or numbered codes have the meaning given here. Peptide text beside a SMILES is read from it. ξ: configuration not given here. Azk = residue with azidated side chain, clicked to Pra; Pra′ = residue with alkynyl side chain, clicked to Azk; Lys(N3) = [N-]=[N+]=NCCCC[C@H](N)C(=O)O; 1Nal = N[C@@H](Cc1cccc2ccccc12)C(=O)O; 2Nal = N[C@@H](Cc1ccc2ccccc2c1)C(=O)O; Aad = N[C@@H](CCCC(=O)O)C(=O)O; Cha = N[C@@H](CC1CCCCC1)C(=O)O; Ile(3ξ) = CCC(C)[C@H](N)C(=O)O; S5 = C=CCCC[C@](C)(N)C(=O)O; Pra = C#CC[C@H](N)C(=O)O

B1: compound 27 (peptide)
peptide: Ac-FN[Pra′]CRD[Azk]IQRMHLRQYQLL-OH
B2: compound 28 (peptide)
peptide: Ac-FN[Pra′]CRD[Azk]IQRMHLRQYQLL-OH
modifications: triazole 3-7
B3: compound 29 (peptide)
peptide: Ac-FN[Pra′]CRD[Azk]IQRMHLRQWELL-OH
B4: compound 30 (peptide)
peptide: Ac-FN[Pra′]CRD[Azk]IQRMHLRQWELL-OH
modifications: triazole 3-7
B5: compound 32 (peptide)
peptide: Ac-FN[Pra′]CRD[Azk]IQRMHLRQYEIL-OH
modifications: triazole 3-7
B6: compound 34 (peptide)
peptide: Ac-FN[Pra′]CRD[Azk]IQRMHLRQYELI-OH
modifications: triazole 3-7
B7: compound 35 (peptide)
peptide: Ac-FN[Azk]CRD[Pra′]IQRMHLRQYELL-OH
modifications: triazole 3-7
B8: compound 36 (peptide)
peptide: Ac-FN[Pra′]CRD[Azk]IQRMHLRQYELL-NH2
modifications: triazole 3-7
B9: compound 37 (peptide)
peptide: Ac-FN[Pra′]CRD[Azk]IQRMHLRQY[Aad]LL-OH
modifications: triazole 3-7
B10: compound 38 (peptide)
peptide: Ac-FN[Pra′]CRN[Azk]IQRMHLRQYELL-OH
modifications: triazole 3-7
B11: compound 39 (peptide)
peptide: Ac-FN[Pra′]CRD[Azk]IQRMHLRQYDLL-OH
modifications: triazole 3-7
B12: compound 43 (peptide)
peptide: Ac-FN[Pra′]CRD[Azk]IQRMHLRQ[1Nal]ELL-OH
modifications: triazole 3-7
B13: compound 46 (peptide)
peptide: Ac-KFN[Pra′]CRD[Azk]IQRMHLRQYELI-OH
modifications: triazole 4-8
B14: compound 47 (peptide)
peptide: Ac-KKKFN[Pra′]CRD[Azk]IQRMHLRQYELI-OH
modifications: triazole 6-10
B15: compound 48 (peptide)
peptide: Ac-KFN[Pra′]CRD[Azk]IQRMHLRQYEIL-OH
modifications: triazole 4-8
B16: compound 49 (peptide)
peptide: Ac-KKKFN[Pra′]CRD[Azk]IQRMHLRQYEIL-OH
modifications: triazole 6-10
B17: compound 52 (peptide)
peptide: Ac-KFN[Pra′]CRD[Azk]IQRMHLRQY[Aad]LL-OH
modifications: triazole 4-8
B18: compound 53 (peptide)
peptide: Ac-KKKFN[Pra′]CRD[Azk]IQRMHLRQY[Aad]LL-OH
modifications: triazole 6-10
B19: compound 54 (peptide)
peptide: Ac-KFN[Pra′]CRD[Azk]IQRMHLRQYDLL-OH
modifications: triazole 4-8
B20: compound 55 (peptide)
peptide: Ac-KKKFN[Pra′]CRD[Azk]IQRMHLRQYDLL-OH
modifications: triazole 6-10
B21: compound 56 (peptide)
peptide: Ac-KKKFN[Pra′]CRD[Azk]IQRMHLRQWELL-OH
modifications: triazole 6-10
B22: compound 57 (peptide)
peptide: Ac-KKKFN[Pra]CRD[Lys(N3)]IQRMHLRQ[1Nal]ELL-OH
modifications: triazole 6-10
B23: compound 58 (peptide)
peptide: Ac-KKKFN[Pra′]CRD[Azk]IQRMHLRQ[2Nal]ELL-OH
modifications: triazole 6-10
B24: compound 64 (peptide)
peptide: Ac-RDIIQR[Lys(N3)]HLR[Pra′]YE[Cha]L-OH
modifications: triazole 7-11
B25: compound 65 (peptide)
peptide: Ac-KKKRDIIQR[Lys(N3)]HLR[Pra′]YE[Cha]L-OH
modifications: triazole 10-14
B26: compound 70 (peptide)
peptide: Ac-FNDCRDIIQRMHLRQYEYL-OH
B27: compound 71 (peptide)
peptide: Ac-FNDCRDIIQRMHLRQYEHL-OH
B28: compound 75 (peptide)
peptide: Ac-FNDARDIIQRMHLRQYELL-OH
B29: compound 81 (peptide)
peptide: Ac-NARRIFNDARDIIQRMHLRQYELL-OH
B30: compound 83 (peptide)
peptide: Ac-NARRIFNDARDIIQRMHLRQYEWL-OH

Biological target: T1, human β2AR (Homo sapiens, UniProt P07550, N187E)
T1 construct: made in house; host or cells: Sf9 insect cells (Bac-to-Bac baculovirus); membrane extracts
Assay: Radioligand binding assay (RLA) with human β2AR, 3H-dihydroalprenolol (DHA) as radioligand, isoproterenol (agonist) as cold competitor, in presence and absence of the peptidomimetic
Conditions: Table 3; ratio IC50 β2AR alone / IC50 β2AR + peptidomimetic
Description: β2AR365N constructs were expressed in Sf9 insect cells, using the Bac-to-Bac® Baculovirus Expression System. The membrane extracts were prepared from cells that expressed β2AR. Subsequently, the cell pellet was resuspended in a buffer (1 ml buffer/2×1E7 cells) containing 75 mM Tris pH 7.4, 12.5 mM MgCl2, 1 mM EDTA, Leupeptin and PMSF as protease inhibitors. Afterwards the cells were vortexed and homogenized in ice using a small volume Ultraturrax (6×10 sec). The cells were then centrifuged for 15 min at 16000 rcf, in a pre-cooled centrifuge (4° C.) and resuspended in the previous buffer containing 10% sucrose. Finally, the membranes were again homogenized in ice with the small volume Ultraturrax (3×10 sec). The protein concentration in the membrane fragments was determined using a Pierce BCA Protein Assay Kit and the protein concentration was extrapolated from the Bovine Serum Albumine standard curve.
To perform the radioligand competition binding assays, 96-well plates were used. For the assays on β2AR, the membrane extracts as well as the peptides were prepared in a binding buffer (75 mM Tris pH 7.4, 12.5 mM MgCl2, 1 mM EDTA, 0.2% BSA). The ligand (isoproterenol) and radioligand ([^3H]-dihydroalprenolol) were dissolved in ligand buffer (75 mM Tris pH 7.4, 12.5 mM MgCl2, 1 mM EDTA, 0.2% BSA and 0.1% ascorbic acid), at 1 mM and 2 nM, respectively. A ten-fold dilution series of the ligand was prepared to obtain a dose response curve. For each reaction 100 μl membrane extract, 50 μl ligand, 50 μl peptide or binding buffer containing 1% DMSO and 50 μl of radioligand was added to the V-bottom storage plate, with a total volume of 250 μl per well. Afterwards, the plates were incubated at room temperature for 2 h on a plate shaker (150 rpm). The samples were harvested into filter plates and washed with ice cold washing buffer (75 mM Tris pH 7,4) using the 96-well harvester. The plates were dried for 1 h at 50° C. and then sealed to allow the addition of 30 μl scintillation liquid to each well. Finally, the top of each plate was sealed and the plates were placed in a Wallac MICROBETA® Trilux scintillation counter and incubated for 30 min in the dark.
After the Microbeta scintillation counter, the experimental data was further analyzed using Graphpad Prism 6.0. After normalization of the raw data, a nonlinear regression was used to fit the data in a one-site binding model, with the total binding set as 100% and the non-specific binding between 0 and 5%. The IC50 values, obtained from the competition curves, were used to determine the shift for each peptide, which is the ratio of IC50 of the agonist test compound on the basal conformation (e.g. IC50 β2AR with no peptidomimetic) versus the active conformation (e.g. IC50 β2AR+peptidomimetic) of the receptor. For certain peptide analogues, a biphasic binding curve was observed and therefore fitted by a two-site model (nonlinear regression), resulting in two IC50 values (IC50Hi and IC50Lo) and a FractionHi, the fraction of receptors in the active state.
Synthesised peptidomimetics were evaluated using a radioligand binding assay (RLA) with a human β2AR, using ^3H-dihydroalprenolol (DHA) as the radioligand and increasing concentrations of isoproterenol (agonist) as cold competitor. In particular, the pharmacological stabilization of the receptor in the active conformation was evaluated by performing the radioligand displacement assay (RLA) in the presence and absence of the peptidomimetics. This validated assay quantifies the pharmacological stabilization of the receptor in the active conformation by comparing the affinities of an agonist for the basal versus the active GPCR conformer (Pardon et al. (2018) Angewandte Chemie International Edition 57, 5292-5295). During the assay, the binding affinity of an orthosteric agonist for the receptor, in particular isoproterenol for human β2AR, in presence and absence of the allosteric peptidomimetic was determined. […]

Row | Molecule | Shift
1 | CCC(C)[C@@H]1NC(=O)[C@@H](NC(=O)[C@H](CC(=O)O)NC(=O)[C@H](CCCNC(=N)N)NC(=O)[C@H](CS)NC(=O)[C@H](CC(=O)O)NC(=O)[C@H](CC(N)=O)NC(=O)[C@H](Cc2ccccc2)NC(C)=O)CCC(=O)NCCCC[C@@H](C(=O)N[C@@H](Cc2c[nH]cn2)C(=O)N[C@@H](CC(C)C)C(=O)N[C@@H](CCCNC(=N)N)C(=O)N[C@@H](CCC(N)=O)C(=O)N[C@@H](Cc2ccc(O)cc2)C(=O)N[C@@H](CCC(=O)O)C(=O)N[C@@H](CC(C)C)C(=O)N[C@@H](CC(C)C)C(=O)O)NC(=O)[C@H](CCCNC(=N)N)NC(=O)[C@H](CCC(N)=O)NC1=O (stereo partly shown) [compound 5, Ac-FNDCRD[EIQRK]HLRQYELL-OH] (HELM PEPTIDE1{[ac].F.N.D.C.R.D.E.[CCC(C)[C@H](N[*:1])C(=O)[*:2]].Q.R.K.H.L.R.Q.Y.E.L.L}$PEPTIDE1,PEPTIDE1,8:R3-12:R3$$$V2.0) | 4

Same assay, conditions: Table 4; ratio IC50 β2AR alone / IC50 β2AR + peptidomimetic

Row | Molecule | Shift
2 | CCC(C)[C@@H]1NC(=O)[C@@](C)(NC(=O)[C@H](CC(=O)O)NC(=O)[C@H](CCCNC(=N)N)NC(=O)[C@H](CS)NC(=O)[C@H](CC(=O)O)NC(=O)[C@H](CC(N)=O)NC(=O)[C@H](Cc2ccccc2)NC(C)=O)CCC/C=C\CCC[C@@](C)(C(=O)N[C@@H](Cc2c[nH]cn2)C(=O)N[C@@H](CC(C)C)C(=O)N[C@@H](CCCNC(=N)N)C(=O)N[C@@H](CCC(N)=O)C(=O)N[C@@H](Cc2ccc(O)cc2)C(=O)N[C@@H](CCC(=O)O)C(=O)N[C@@H](CC(C)C)C(=O)N[C@@H](CC(C)C)C(=O)O)NC(=O)[C@H](CCCNC(=N)N)NC(=O)[C@H](CCC(N)=O)NC1=O (stereo partly shown) [compound 8, Ac-FNDCRD[S5IQRS5]HLRQYELL-OH] (Ac-FNDCRD[S5][Ile(3ξ)]QR[S5]HLRQYELL-OH; staple (Z) 7-11) | 2

Same assay, conditions: Table 18a overview; averaged values of IC50 shift

Row | Molecule | Shift
3 | CCC(C)[C@@H]1NC(=O)[C@@](C)(NC(=O)[C@H](CC(=O)O)NC(=O)[C@H](CCCNC(=N)N)NC(=O)[C@H](CS)NC(=O)[C@H](CC(=O)O)NC(=O)[C@H](CC(N)=O)NC(=O)[C@H](Cc2ccccc2)NC(C)=O)CCC/C=C\CCC[C@@](C)(C(=O)N[C@@H](Cc2c[nH]cn2)C(=O)N[C@@H](CC(C)C)C(=O)N[C@@H](CCCNC(=N)N)C(=O)N[C@@H](CCC(N)=O)C(=O)N[C@@H](Cc2ccc(O)cc2)C(=O)N[C@@H](CCC(=O)O)C(=O)N[C@@H](CC(C)C)C(=O)N[C@@H](CC(C)C)C(=O)O)NC(=O)[C@H](CCCNC(=N)N)NC(=O)[C@H](CCC(N)=O)NC1=O (stereo partly shown) [compound 8, Ac-FNDCRD[S5IQRS5]HLRQYELL-OH] (Ac-FNDCRD[S5][Ile(3ξ)]QR[S5]HLRQYELL-OH; staple (Z) 7-11) | 3
4 | CCC(C)[C@@H]1NC(=O)[C@@H](NC(=O)[C@H](CC(=O)O)NC(=O)[C@H](CCCNC(=N)N)NC(=O)[C@H](CS)NC(=O)[C@H](CC(=O)O)NC(=O)[C@H](CC(N)=O)NC(=O)[C@H](Cc2ccccc2)NC(C)=O)CCC(=O)NCCCC[C@@H](C(=O)N[C@@H](Cc2c[nH]cn2)C(=O)N[C@@H](CC(C)C)C(=O)N[C@@H](CCCNC(=N)N)C(=O)N[C@@H](CCC(N)=O)C(=O)N[C@@H](Cc2ccc(O)cc2)C(=O)N[C@@H](CCC(=O)O)C(=O)N[C@@H](CC(C)C)C(=O)N[C@@H](CC(C)C)C(=O)O)NC(=O)[C@H](CCCNC(=N)N)NC(=O)[C@H](CCC(N)=O)NC1=O (stereo partly shown) [compound 5, Ac-FNDCRD[EIQRK]HLRQYELL-OH] (HELM PEPTIDE1{[ac].F.N.D.C.R.D.E.[CCC(C)[C@H](N[*:1])C(=O)[*:2]].Q.R.K.H.L.R.Q.Y.E.L.L}$PEPTIDE1,PEPTIDE1,8:R3-12:R3$$$V2.0) | 4

Biological target: human β2AR (human, UniProt P07550 2-365)
Assay: cell-based or functional assay
Conditions: not given

Row | Molecule | Shift (averaged)
5 | B1 | 4
6 | B2 | 12
7 | B3 | 4
8 | B4 | 9
9 | B5 | 2
10 | B6 | 29
11 | B7 | 5
12 | B8 | 1
13 | B9 | 35
14 | B10 | 7
15 | B11 | 52
16 | B12 | 54
17 | B13 | 51
18 | B14 | 64
19 | B15 | 8
20 | B16 | 11
21 | B17 | 53
22 | B18 | 38
23 | B19 | 91
24 | B20 | 72
25 | B21 | 53
26 | B22 | 49
27 | B23 | 39
28 | B24 | 81
29 | B25 | 63
30 | B26 | 2
31 | B27 | 1
32 | B28 | 5
33 | B29 | 8
34 | B30 | 9
